Source: patent publication US20240287489A1, “CHITINOLYTIC ENZYME-BASED PLANT PROTECTION AGENTS” (GLOBACHEM NV, priority 2021, published 2024)

Legend:
[1] = TLC analysis of cleavage patterns with chitin standard molecules; format: biochemical; settings: for hydrolysis products from chitin pentamers / hydrolysis products from chitin trimers: 4 mg/ml, 16 h, TLC; for cleavage mechanism (exo-/endo-chitinase activity): TLC of products from oligomeric or polymeric chitin substrates
Protocol: monomeric oligomers. Chitosan was degraded to a crude mixture of multiple oligomers ranging from dimers to pentamers and even larger undefined yet water-soluble fragments that migrated slightly from the starting point. Further analysis of the cleavage patterns was carried out using chitin standard molecules of DP2-DP6 and incubating them at 4 mg/ml concentration with the individual enzymes (FIG. 9).
Dimeric chitin molecules were not converted by any of the enzymes. […] All chitinases degraded chitin tetramers to dimers as a single product. […] Chitin hexamers were degraded to dimers and trimers. Although all chitinases are different in their structure and present different glycosyl hydrolase domains hydrolysis products in general were similar.
C2, 4 and 5 yielded similar product patterns when incubated with insoluble substrates. […] The presented data underline that the novel chitinases are all suited for the degradation of powdery chitin without any further harsh chemical pre-treatment.
Hydrolysis products were analyzed using 10×10 cm TLC Silica gel 60 F254 plates (Merck, Darmstadt, Germany) and a mixture of butanol:methanol:25% ammonia:H2O (5:4:2:1) as mobile phase. A total sample volume of 0.5 μl was applied in 0.25 μl spots. Chitin standard sugars (Megazyme, Chicago, USA) (5 mg/ml) were applied to the plate (0.5 μL in 0.25 μL spots) as size standard for the determination of the DP. After separation, the plate was air-dried and the developing solution (200 ml Acetone, 30 ml phosphoric acid (85%), 4 ml aniline, 4 g diphenylamine) was sprayed on the plate followed by spot visualization at 300° C. using a heat gun.

[2] = Enzyme kinetics on chitin powder (Michaelis-Menten non-linear fit); format: biochemical; settings: 2 μM enzyme, 0-150 mg/ml chitin powder
Protocol: Enzyme kinetics were determined using chitin powder as a substrate and the optimum enzyme to substrate ratio could be determined as well as Vmax and Km values. The concentrations of chitin powder varied
from 0 mg/ml up to 150 mg/ml while amount of enzyme was kept constant (2 μM). The initial velocities (V0) versus substrate concentration ([S]) were plotted as Lineweaver-Burk and Michaelis-Menten curves using GraphPad software (FIG. 7).
Maximum reaction velocities (Vmax) and Michaelis-Menten constants (Km) were determined using a non-linear fit Michaelis-Menten model (Table 4.6). Thereby, optimum enzyme-substrate ratios were determined that would allow a maximization of substrate conversion rates. Furthermore, the Km indicated the reciprocal enzyme-substrate affinity for C1-C5. Higher Km values reflect an overall lower affinity and thus reduced conversion efficiencies. […] In comparison, higher Km values for C2 and C5 reflected an overall lower affinity to insoluble chitin.
(§1) Enzyme samples were incubated at different temperature (10-60° C., 10° C. increment) and pH (4-11, increment 1) using different buffer systems (Acetate, Tris-HCl, MES, total molar concentration 100 mM), as well as NaCl content (0, 1. 2.5, 5, 10 and 20% w/v) to determine optimum reaction conditions. All experiments were carried out at 1.0 ml scale using 2 μM of the respective enzymes and a 5% (wv) suspension of chitin powder extracted from shrimp shells (˜400.000 g/mol; Carl, Roth) in 100 mM MAT buffer. For the determination of the substrate specificity, chitin powder (5% w/v), glycol chitin (10% v/v), colloidal chitin (5% w/v), chitosan [DA 15-25%, medium molecular weight, Sigma-Aldrich] (5% w/v) and microcrystalline cellulose powder (Sigma Aldrich) (5% w/v) were investigated, respectively. The effect of several potential co-factors on activity was elucidated at a concentration of 1 mM. Additionally, the effect of detergents [SDS 0.5% (w/v), Tween-20 and Triton X-100 both at 0.5% (v/v)] and chemicals (Imidazole 100 mM, EDTA 1 mM) on enzymatic activity was assessed. Samples were incubated in a thermomixer for 16 h at 900 rpm. After incubation, samples were analyzed using the enzyme assay. Thermostability was assessed after incubation of recombinant chitinases at 60° C. for different durations followed by the quantification of residual enzyme activity under standard assay conditions.

Fusarium oxysporum = assay: Minimum inhibitory concentration (MIC) test on fungal pathogens; format: cell-based; set-up: key: xx = no growth/strong inhibition; x = small inhibition; settings: start concentration 100 μg/ml
[3] = Substrate specificity, reducing end assay; format: biochemical; settings: in % activity of chitin powder; 16 h at optimum conditions, 50 mg/ml substrate
Protocol: Different chitinous substrates were tested to assess the substrate affinity of the novel chitinases relative to untreated chitin powder. […] As expected, the conversion of colloidal chitin is more efficient compared to chitin powder as it provides an overall smaller particle size and thereby larger surface area. Chitosan powder (degree of acetylation: 15%) was also degraded efficiently and high chitosanase activity was observed especially for C1, C3, C4 and C5. Merely basal activity was detected when cellulose was utilized as a substrate for all enzymes.
as §1

[4] = Temperature, pH and NaCl optima and temperature stability of recombinant chitinases (reducing end assay); format: biochemical; settings: for Optimum pH / Optimum salinity / Optimum temperature: chitin powder; for Optimum pH: 30° C., pH 4-11; for Optimum salinity: pH 8, 30° C., 0-20% w/v NaCl; for Optimum temperature: pH 8, range 10-60° C.
Protocol: All enzymes were first characterized regarding their temperature and pH-optima as well as the optimum NaCl content as the enzymes were isolated from a sea-water microorganism. As the future intention is to integrate these novel enzymes in a degradation processes of natural chitin, all parameters were determined using chitin powder as a substrate instead of pre-treated analogs such as colloidal chitin, glycol chitin or artificial fluorogenic substrates. […] (FIG. 5A). Next, enzyme temperature stability was investigated (FIG. 51). […] Enzyme C1 retained a 50% residual activity after 240 min incubation at 60° C., while the activity of the other chitinases dropped below 50% after 15 min and remained on that level.
Given the marine origin of the P. orarium strain, the effect of salt was also evaluated, testing the addition of NaCl to the standard buffer. […] Increasing NaCl amounts up to 20% (w/v) reduced enzyme activity substantially to 10% for C2, 4 and 5, with C1 and C3 showing highest tolerance (65% activity).
For the determination of enzymatic activity of recombinant chitinases, a reducing end assay was carried out [Svein et al., Carbohydr Polym, 2004. 56(1): p. 35-39.]. Fractions containing chitinases were incubated with 5% (w/v) chitin powder extracted from shrimp shells (˜400.000 g/mol; Carl Roth) in MAT buffer for 2 h in an overhead shaker at ambient temperature (standard conditions). Samples were centrifuged at 13000×g for 2 min and 40 μl of the supernatant was mixed with 40 μl 0.5 M NaOH and 40 μL of a reagent containing 1.5 mg/ml 3-Methyl-2-benzothiazolinonhydrazon and 0.75 mg/ml Dithiothreitol. Samples were incubated at 80° C. for 15 min and then thoroughly mixed with 80 μl of 0.5% (w/v) FeNH4(SO4)2)×12H2O, 0.5% (w/v) sulfamic acid and 0.25 M HCl. After cooling down to room temperature, 100 μl of the samples were measured at 620 nm. A calibration curve of N-acetyl-glucosamine was constructed freshly for each measuring cycle. One unit [U] was defined as the amount of enzyme required to release 1 μmol of reducing sugars per hour.
as §1

B1: Chitinase 1: chitinolytic enzyme from P. orarium, SEQ ID NO: 1, recombinant with PelB signal peptide and 6×His tag; run 19 = 2 μM alone (protein, listed as Photobacterium orarium)
chain: MAAPGTPQIAWMETDYAIVEVDQAASAYKSLITVKPAAEVPVAWQRYSGETADLWKVKLNGNVVFEQSIAPASSGAGSTTLSVAQGGQYAMTVELCSGTGAAQACTSSAATNIVVADTDGSHLDPLPMNVDANNGNYTTPANTVVGAYFVEWGVYGRKFSVDNIPAQNLTHILYGFIPICGPNESLGEIENGNSLAALNRACQGTPDYEVVIHDPWAAVQMPQPQSGHTHSTPYKGTYGQMMALKQRYPDLKIVPSVGGWTLSDPFYSFTDKAKRDIFVASVKKFLKTWKFFDGVDIDWEFPGGKGANANLGDPVNDGPAYVALMRELRVMLDELEAETGRQYELTSAIGVGYDKIDVVNYADAVQYMDYIFAMTYDFFGGWNNVPGHQTALFCGSHMSADVCNGTGVDENGVPRQGPAYTAAHGIDRLLAQGVPANKLVLGTAMYARGWTGVTEASMTDPTNPMTGTGNGMVPGSWEPGVIDYKDVVTDYINNAAVTKGYDAQAEAPWAYNPSNGNLITYDDRRSVLAKGQYVRNLGLAGLFAWEIDADNGDILNAMQDSLAGGGGNYAPVAKAGADQVVNGAASVTLDGSASSDRDGQIVSYQWTQTSGPALTLTGSDTATATVAVPEVTADTQYAFTLTVTDNAGDTATDSVTVTAKAPGSNTAPVVAVSGPATASAGDTVVLDASQSSDADGDTLTFTWTVPAGVNATVNGATVSFVADSYTVDTPLNFTVAVSDGTDSVTESVTVTVLKDGGSTGCTNAWATGGVYNSGDIVTHSGKSWKAKWWTTGEEPGTTGEWGVWEDLGAANCQIE
modifications: PelB signal peptide; 6xHis tag; Chitinase 1
notes: run 19 = 2 μM alone
hydrolysis products from chitin pentamers [1]: dimers and monomers
hydrolysis products from chitin trimers [1]: dimers and monomers
cleavage mechanism (exo-/endo-chitinase activity) [1]: exo-chitinase activity
Km (enzyme-substrate affinity) [2]: 9.1 mg/mL
Vmax (maximum reaction velocity) [2]: 197.7 U/ml
growth inhibition of Fusarium oxysporum in the MIC test (Fusarium oxysporum): xx
Relative activity, Cellulose [3]: 14.3 ± 5.7%
Relative activity, Chitin [3]: 100%
Relative activity, Chitosan [3]: 117.1 ± 9.1%
residual activity ([4]; after 240 min incubation at 60° C.): 50%
Optimum pH [4]: 8
Optimum salinity [4]: 1 % NaCl
Optimum temperature [4]: 30 °C

B2: Chitinase 3: chitinolytic enzyme from P. orarium, SEQ ID NO: 3, recombinant with PelB signal peptide and 6×His tag (protein, listed as Photobacterium orarium)
chain: MALAAPGTPQLAWMETDYAIVEVDQAATAYKDLVTVKNAADVPVAWQRYSGETADHWKVKLNGNVAFEESINPASSGAGSTTLSITQGGQYALTVELCSGSGAEEACSSSPATNIVVADTDGSHLDPLPMNVDPNNGTYSTPADTVVGAYFVEWGVFGRKFTVDKIPAQNLTHILYGFIPVCGPNESLGEIESGNSLAALNRACAGTPDFEVAIHDPWAAVQMPQPQSGHTYSTPYKGNYGQLMALKQRYPDLKVIPSIGGWTLSDPFFSFTDKSKRDVFVASVKKFLQTWKFFDGVDIDWEFPGGKGANTTLGDPVNDGPAYVALMRELRTMLDGLEAETGRQFELTSAIGVGYDKIDVVNYAEASQYMDYIFNMSYDFYGGWSNVTGHQTALNCGSHLTADQCNGTGVDENGEPRQGPAYTTAHGVERLLAQGVPANKLVVGAAMYGRGWTGVTQASMTDPSNPMTGVGNGAVAGSWEAGVIDYKDVVTRYENKAGVVLGYDEQAEAPWAYDPSNGDLVTYDSPRSIMAKGQYVRDLGLAGLFAWEIDADNGDILNAMQESLAGAPAGNRAPVARAGSDQQVNTAATVTLNGSSSTDSDGQIAGYQWVQTSGPALTLNGANTASATISVPDVTVDTQYVFTLTVTDNEGATATDSITVTAKAPGAQNTAPVASLTGPGTANADDVITLDASQSTDADGDTLTYDWTVPAGVNAVINGSSLSFTADSYTTDTALSFSVSVSDGTASDAASLTVTIAKDESGTGGEGDFPAYVEGTAYQAGDQVSNGGVNFECKPYPYSGWCSGAAWAYEPGVGVYWQDAWTQLIE
modifications: PelB signal peptide; 6xHis tag; Chitinase 3
hydrolysis products from chitin pentamers [1]: dimers and monomers
hydrolysis products from chitin trimers [1]: dimers and monomers
cleavage mechanism (exo-/endo-chitinase activity) [1]: exo-chitinase activity
Km (enzyme-substrate affinity) [2]: 15.2 mg/mL
Vmax (maximum reaction velocity) [2]: 206.2 U/ml
growth inhibition of Fusarium oxysporum in the MIC test (Fusarium oxysporum): xx
Relative activity, Cellulose [3]: 9.4 ± 0.9%
Relative activity, Chitin [3]: 100%
Relative activity, Chitosan [3]: 113.4 ± 9.0%
Optimum pH [4]: 8
Optimum salinity [4]: 5 % NaCl
Optimum temperature [4]: 30 °C
